This is an account of results in PMC7842835, “Production, Purification and Characterization of Recombinant Biotinylated Phytochrome B for Extracellular Optogenetics” (Bio-protocol, 2020).

In this assay the target is T1, PhyB(1-651)-AviTag-His6, biotinylated photosensory domain of A. thaliana phytochrome B (A. thaliana, UniProt P14713 1-651, biotin on the AviTag motif (~80% biotinylation); chromophore phycocyanobilin (PCB)).
T1 construct: photosensory domain of phytochrome B (PhyB), A. thaliana, amino acids 1-651; Expected mass 74 kDa; also called PhyB-AviTag; source: E. coli BL21 Star (DE3), plasmid pMH1105 with HO1 and PcyA, purified (Ni-NTA IMAC, desalting); not shown: AviTag, C-terminal, kept
T1 sequence (looked up): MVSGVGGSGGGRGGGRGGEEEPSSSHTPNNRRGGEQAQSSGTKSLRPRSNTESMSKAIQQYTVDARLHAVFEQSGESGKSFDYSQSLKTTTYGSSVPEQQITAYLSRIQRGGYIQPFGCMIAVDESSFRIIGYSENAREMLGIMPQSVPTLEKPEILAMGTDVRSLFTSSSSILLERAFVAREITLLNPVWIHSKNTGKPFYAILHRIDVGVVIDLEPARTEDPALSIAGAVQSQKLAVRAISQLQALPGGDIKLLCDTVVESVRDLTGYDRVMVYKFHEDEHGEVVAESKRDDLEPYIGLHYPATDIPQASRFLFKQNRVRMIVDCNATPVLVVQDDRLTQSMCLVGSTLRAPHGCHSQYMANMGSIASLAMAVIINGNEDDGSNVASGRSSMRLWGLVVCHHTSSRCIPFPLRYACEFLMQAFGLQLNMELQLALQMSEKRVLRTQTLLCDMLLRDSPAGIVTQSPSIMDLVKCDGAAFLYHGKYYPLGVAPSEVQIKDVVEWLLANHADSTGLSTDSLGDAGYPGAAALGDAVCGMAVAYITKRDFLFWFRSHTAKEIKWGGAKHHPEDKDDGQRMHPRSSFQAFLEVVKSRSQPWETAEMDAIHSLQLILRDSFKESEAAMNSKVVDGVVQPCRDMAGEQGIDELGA
The assay can be described thus: SEC; equimolar mixture of PhyB-AviTag (2.2 mg/ml) and GFP-PIF6 (1.2 mg/ml) in protein buffer (PBS, 0.5 mM TCEP), illuminated 3 min with 660 nm light (100 µmol/(m^2·s)), Superdex 200 Increase 10/300 GL run in the dark, 1 ml/min, absorbance at 280, 488 and 671 nm; never frozen and frozen-thawed proteins; compared with 740 nm illumination. To be noted: both partners purified. In general terms: SEC sorts molecules by how far they enter the pores of the column.

B1: GFP-PIF6(1-100)-His6 (domain or fragment, A. thaliana, UniProt Q8L5W7 1-100, looked up)
chain: MMFLPTDYCCRLSDQEYMELVFENGQILAKGQRSNVSLHNQRTKSIMDLYEAEYNEDFMKSIIHGGGGAITNLGDTQVVPQSHVAAAHETNMLESNKHVD
notes: Expected mass 40 kDa; source: E. coli BL21 (DE3)pLysS, plasmid pHB111, purified as described for PhyB-AviTag (Ni-NTA IMAC, desalting); not shown: GFP, N-terminal, kept
Regarding B1, the binding result was “binds”.
